Measurements as given in the supplement of paper PMC10567573.

B1: TMEM192 (parent)
chain: LWILHLLLECYIQYHHSKIRNRGY
B2: TNXB (parent)
chain: FSEIRETSAKVNWMPPPSRADSFK

Variants of: B1
Experiment: protein stability index of a GFP-peptide fusion (GPS, HEK-293T) (PSI 1-6); higher = more stable
Conditions: c terminus: a fixed tail appended
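Also: lentivirally expressed fusions sorted by FACS into six bins by GFP to DsRed ratio, PSI derived from sequencing read proportions per bin multiplied by bin number.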

Protein stability index: each site, then its substitutions
G23: Y 1.89 | F 1.38 | Q 2.51 | M 1.87 | N 1.79 | C 2.04 | K 2.54 | I 2.99 | R 1.78 | V 3.73 | T 2.78 | P 3.17 | W 1.77
Y24: H 1.62 | V 2.69 | G 3.91 | R 2.31 | P 2.52 | A 2.18 | C 1.79 | S 2.3 | N 2.44 | T 1.12 | I 2.54 | K 1.31 | M 2.28 | Q 1.57

Variants of: B2
Experiment: as above
Conditions: c terminus: a fixed tail appended

Protein stability index: each site, then its substitutions
S2: N 4.04 | I 2.17 | T 2.67 | K 3.49 | M 3.17 | G 2.97 | P 3.65 | E 3.98 | W 2.37 | Y 3 | L 2.97 | H 2.21 | F 2.65 | D 4.12 | V 1.9 | R 3.2 | A 2.69 | Q 3.97
E3: V 2.44 | G 2.34 | D 3.37 | M 2.55 | L 2.47 | I 2.03 | S 3.09 | P 2.52 | C 1.77 | H 2.62 | K 3.68 | T 3.52 | A 2.4 | N 3.2 | F 2.38 | R 3.13 | W 2.6 | Q 3.13 | Y 2.21
E6: S 2.64 | F 2.22 | Q 2.02 | Y 2.87 | K 3 | A 3.31 | C 2.65 | I 1.82 | N 2.69 | R 2.89 | M 2.34 | H 3.38 | P 3.21 | V 2.84 | W 2 | L 2.28 | D 3.28 | G 3.03 | T 2.95
A9: D 3.58 | I 2.83 | S 3.75 | G 3.04 | Y 2.82 | N 2.95 | P 3.33 | W 2.46 | H 3.36 | E 4.04 | L 3.41 | V 2.35 | T 3.46 | C 2.38 | F 2.2 | K 3 | M 3.32 | R 3.29 | Q 3.72
F1: Y 3.98 | C 3.69 | L 4.02 | R 4.99 | P 4.76 | D 5.04 | K 4.4 | H 3.94 | Q 4.48 | A 4.29 | E 4.45 | G 4.22 | I 3.46 | T 4.07 | N 4.63 | M 4.15 | S 4.48 | V 4.19 | W 3.6
V11: A 3.77 | Q 3.65 | E 4 | I 3.77 | H 3.5 | T 3.72 | D 4.12 | M 3.17 | G 3.38 | R 3.02 | F 2.97 | L 3.29 | K 4.2 | N 3.45 | Y 2.7 | W 2.73 | C 3.15 | S 3.87 | P 4.03
P15: D 3.85 | H 3.42 | L 3.21 | F 2.46 | M 3.27 | W 2.56 | Q 3.36 | K 3.33 | V 3.48 | T 3.38 | N 3.12 | A 3.51 | C 2.71 | S 3.15 | Y 2.22 | G 3.29 | R 3.21 | I 2.18 | E 3.49
P17: F 3.19 | K 3.43 | I 3.36 | D 3.84 | E 4.09 | G 3.81 | L 2.86 | A 3.65 | C 2.81 | H 3.08
I4: T 4.29 | E 4.3 | C 3.49 | K 3.72 | G 4.34 | M 3.92 | R 3 | L 3.42 | P 4.16 | D 3.99 | Y 2.94 | S 4.01 | F 2.9 | V 3.56 | Q 3.89 | N 3.51 | W 1.9 | A 3.76 | H 4.14
M14: A 3.17 | Q 3.92 | D 3.91 | G 3.63 | L 3.31 | W 2.98 | I 3.11 | S 3.92 | E 4.11 | R 4.26 | Y 2.64 | H 3.44 | C 2.63 | K 3.52 | N 3.4 | F 3.13 | V 2.96
S8: H 3.4 | I 2.73 | M 3.15 | L 2.79 | P 3.3 | W 2.1 | N 3.73 | D 4.48 | F 2.51 | Q 3.76 | K 2.95 | Y 2.95 | G 3.15 | R 2.74 | E 3.5 | A 3.5 | C 3.95 | T 3.63 | V 3.1
R5: P 4.12 | A 3.96 | D 3.97 | C 2.83 | H 3.79 | I 3.4 | V 3.52 | M 3.48 | N 3.79 | T 3.87 | G 3.22 | K 3.74 | Y 3.04 | S 4.02 | W 2.02 | L 3.51 | Q 4.15 | E 4.23 | F 2.86
T7: R 3.3 | G 3.14 | M 2.97 | P 3.64 | I 2.9 | C 3.24 | L 2.69 | K 3.97 | A 3.23 | F 1.78 | Q 3.38 | S 3.22 | Y 2.25 | D 3.86 | N 3.37 | V 2.97 | E 3.88 | H 3.1
P16: W 1.82 | E 3.52 | V 3.41 | C 3.14 | N 2.89 | Q 3.23 | Y 2.67 | I 3.15 | L 3.02 | D 3.03 | H 3.05 | G 2.8 | K 3.33 | T 3.27 | A 3.05 | F 2.67 | S 3.69 | M 2.89 | R 2.87
K10: A 3.92 | W 1.66 | D 4.01 | G 3.28 | R 3.67 | F 2.09 | Y 2.72 | Q 4.12 | L 3.29 | T 3.96 | S 3.76 | P 3.52 | I 3.06 | E 3.76 | N 2.94 | H 3.32 | C 3 | M 3.72
W13: T 4.03 | C 4.27 | P 4.43 | N 4.49 | D 4.8 | K 4.55 | A 4.11 | F 3.57 | V 4.17 | E 4.94 | H 3.61 | M 3.98 | Q 4.23 | Y 4.06 | S 3.83 | R 4.21 | G 4.15 | L 4 | I 4.47
N12: H 2.71 | Y 2.09 | Q 3.04 | P 3.17 | R 2.62 | I 3.24 | E 3.46 | W 2.2 | F 2.96 | D 3.83 | G 3.35 | V 1.95 | A 2.14 | T 2.9 | M 2.04 | S 3.38 | K 2.88
